Changes are numbered by the printed parent chain. Non-standard residues stand in square brackets, D forms with d. No end group written: not given here. *: point of attachment. Dnp = O=[N+]([O-])c1ccc(*)c([N+](=O)[O-])c1; 2Abz = Nc1ccccc1C(=O)O
Tests used:
[1] = target: T1, Abz-LAETGK(Dnp)-CONH2
T1 chain: LAETGK

[2] = target: T2, Gly-Gly-Gly-COOH
T2 chain: GGG

[3] = target: T3, Abz-LPETGK(Dnp)-CONH2
T3 chain: LPETGK

[4] = target: T4, Abz-LAETGK(Dnp)-CONH2 (N-terminus assumed; SMILES CC(C)C[C@H](NC(=O)c1ccccc1N)C(=O)N[C@@H](C)C(=O)N[C@@H](CCC(=O)O)C(=O)N[C@H](C(=O)NCC(=O)N[C@@H](CCCCNc1ccc([N+](=O)[O-])cc1[N+](=O)[O-])C(N)=O)[C@@H](C)O); assay: cell-based or functional assay
T4 peptide: [2Abz]LAETGK(Dnp)-NH2

[5] = target: T5, Abz-LPESGK(Dnp)-CONH2 (N-terminus assumed; SMILES CC(C)C[C@H](NC(=O)c1ccccc1N)C(=O)N1CCC[C@H]1C(=O)N[C@@H](CCC(=O)O)C(=O)N[C@@H](CO)C(=O)NCC(=O)N[C@@H](CCCCNc1ccc([N+](=O)[O-])cc1[N+](=O)[O-])C(N)=O); assay: cell-based or functional assay
T5 peptide: [2Abz]LPESGK(Dnp)-NH2

[6] = target: T6, Abz-LPECGK(Dnp)-CONH2
T6 chain: LPECGK

[7] = target: T7, Abz-LPEAGK(Dnp)-CONH2
T7 chain: LPEAGK

[8] = target: T8, human fetuin A, endogenous in human plasma, P02765
T8 chain: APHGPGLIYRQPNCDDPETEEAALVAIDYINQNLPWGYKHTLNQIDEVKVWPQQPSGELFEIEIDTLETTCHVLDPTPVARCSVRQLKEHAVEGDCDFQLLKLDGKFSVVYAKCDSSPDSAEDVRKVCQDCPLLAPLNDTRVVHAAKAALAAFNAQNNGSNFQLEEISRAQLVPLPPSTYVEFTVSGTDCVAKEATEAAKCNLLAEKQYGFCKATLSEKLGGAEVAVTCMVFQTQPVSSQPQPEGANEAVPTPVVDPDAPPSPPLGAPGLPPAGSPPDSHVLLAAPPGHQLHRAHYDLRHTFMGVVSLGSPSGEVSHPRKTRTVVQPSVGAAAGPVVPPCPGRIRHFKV

[9] = target: T9, Abz-LPESGK(Dnp)-CONH2
T9 chain: LPESGK

[10] = target: T10, Abz-LSETGK(Dnp)-CONH2
T10 chain: LSETGK

B1: 2A.6C (protein)
chain: QAKPQIPKDKSKVAGYIEIPDADIKEPVYPGPATREQLNRGVSFHEENESLDDQNISIAGHTFIDRPNYQFTNLKAAKPGSMVYFKVGNETRIYKMTSIRKVRPTAVEVLDEQKGKDKQLTLVTCDDYNEETGVWETRKIFVATEVK
Km, LxExG [1]: 343 µM
increased affinity for the LAETG substrate as compared to the LPETG substrate [1]: from ˜61 (2A.6c) to ˜116fold (2Ar5)
kcat/Km (Hz/M) [1]: 2380 Hz/M
specificity (relative cat. Efficiency, fold), LAETG over LPETG [1]: 61.6 fold
Km, GGG (uM); with LAETG peptide [2]: 642 µM
Km, LxExG [3]: 1980 µM
kcat/Km (Hz/M) [3]: 38.7 Hz/M

B2: eSrtA(2A-3.5) (enzyme)
chain: B1 chain with H45A, P79K, I93K, K101N, V109I, V123F
specificity (relative cat. Efficiency, fold), by the kcat/Km cells LPETG over LAETG [4]: 2.21 fold
Avg KM [1]: 6370 µM
Avg kcat/KM [1]: 180
Km, LxExG [1]: 7160 µM
kcat/Km (Hz/M) [1]: 175 Hz/M
Avg KM [3]: 3750 µM
Avg kcat/KM [3]: 406
Km, LxExG [3]: 4110 µM
Specificity (relative catalytic efficiency, fold), LPETG over LAETG [3]: 2.25 fold
kcat/Km (Hz/M) [3]: 386 Hz/M

B3: evolved sortase A (eSrtA) (enzyme)
chain: B1 chain with H45A, P79K, I93K, K101N, R103K, V123I
specificity (relative cat. Efficiency, fold), by the kcat/Km cells LPETG over LPESG [5]: 10.2 fold
Km [6]: 72.5 µM
kcat/Km [6]: 48800 M⁻¹ s⁻¹
Km [1]: 6070 µM
Km, LxExG [1]: 6160 µM
Rel. Activity (fold below the enzyme's best substrate, LPETG) [1]: 103 fold
kcat/Km [1]: 223 M⁻¹ s⁻¹
kcat/Km (Hz/M) [1]: 221 Hz/M
Km, GGG (uM); with LPETG peptide [2]: 2990 µM
Km,GGG (µM); listed substrate LAETG [2]: 807 µM
Km,GGG (µM); listed substrate LPEAG [2]: 48400 µM
Km,GGG (µM); listed substrate LPECG [2]: 57000 µM
Km,GGG (µM); listed substrate LPESG [2]: 22000 µM
Km,GGG (µM); listed substrate LPETG [2]: 1620 µM
Km,GGG (µM); listed substrate LSETG [2]: 337 µM
Km [7]: 83.4 µM
kcat/Km [7]: 8900 M⁻¹ s⁻¹
Km [3]: 230 µM
Km, LxExG [3]: 208 µM
kcat/Km [3]: 23000 M⁻¹ s⁻¹
kcat/Km (Hz/M) [3]: 27100 Hz/M
specificity (relative cat. Efficiency, fold), LPETG over LAETG [3]: 123 fold
conjugation efficiency in human plasma, with supplemental calcium (densitometry) [8]: 0.6% by eSrtA in the presence supplemental calcium
fetuin A conjugation efficiency with 10 mM added CaCl2, against eSrtA(4S-9) [8]: only modest fetuin A conjugation efficiencies (90-fold lower than that of eSrtA(4S-9)) in the presence of 10 mM added CaCl2
processing of fetuin A in human plasma without supplemental calcium [8]: eSrtA showed no processing of fetuin A without supplemental calcium
Km [9]: 318 µM
Km, LxExG [9]: 672 µM
Rel. Activity (fold below the enzyme's best substrate, LPETG) [9]: 4.9 fold
kcat/Km [9]: 4650 M⁻¹ s⁻¹
kcat/Km (Hz/M) [9]: 2650 Hz/M
Km [10]: 533 µM
kcat/Km [10]: 192 M⁻¹ s⁻¹

From patent publication US20160208233A1 (Harvard, published 2016)
